Test results reported in patent US20210206865A1 (Regeneron, published 2021).

T1: human BCMA on the surface of cell lines (NCI-H929, MM.1S, OPM-2, RPMI-8226, Daudi, Raji, MOLP-8, U266) (human, UniProt Q02223 1-184)
T1 sequence: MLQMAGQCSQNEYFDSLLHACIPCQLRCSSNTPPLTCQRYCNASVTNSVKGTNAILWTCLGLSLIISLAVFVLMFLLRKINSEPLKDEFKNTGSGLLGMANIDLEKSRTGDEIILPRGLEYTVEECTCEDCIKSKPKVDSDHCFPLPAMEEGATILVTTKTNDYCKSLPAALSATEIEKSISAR

B1: bsAb25441D bispecific antibody (REGN5458), anti-BCMA x anti-CD3 (bispecific antibody, human IgG4 S228P, kappa)
heavy 1: EVQLVESGGGLVQPGGSLRLSCAASGFTFSNFWMTWVRQAPGKGLEWVANMNQDGSEKYYVDSVKGRFTISRDNAKSSLYLQMNSLRAEDTAVYYCARDREYCISTSCYDDFDYWGQGTLVTVSSASTKGPSVFPLAPCSRSTSESTAALGCLVKDYFPEPVTVSWNSGALTSGVHTFPAVLQSSGLYSLSSVVTVPSSSLGTKTYTCNVDHKPSNTKVDKRVESKYGPPCPPCPAPPVAGPSVFLFPPKPKDTLMISRTPEVTCVVVDVSQEDPEVQFNWYVDGVEVHNAKTKPREEQFNSTYRVVSVLTVLHQDWLNGKEYKCKVSNKGLPSSIEKTISKAKGQPREPQVYTLPPSQEEMTKNQVSLTCLVKGFYPSDIAVEWESNGQPENNYKTTPPVLDSDGSFFLYSRLTVDKSRWQEGNVFSCSVMHEALHNHYTQKSLSLSLGK
heavy 2: EVQLVESGGGLVQPGRSLRLSCAASGFTFDDYSMHWVRQAPGKGLEWVSGISWNSGSKGYADSVKGRFTISRDNAKNSLYLQMNSLRAEDTALYYCAKYGSGYGKFYHYGLDVWGQGTTVTVSSASTKGPSVFPLAPCSRSTSESTAALGCLVKDYFPEPVTVSWNSGALTSGVHTFPAVLQSSGLYSLSSVVTVPSSSLGTKTYTCNVDHKPSNTKVDKRVESKYGPPCPPCPAPPVAGPSVFLFPPKPKDTLMISRTPEVTCVVVDVSQEDPEVQFNWYVDGVEVHNAKTKPREEQFNSTYRVVSVLTVLHQDWLNGKEYKCKVSNKGLPSSIEKTISKAKGQPREPQVYTLPPSQEEMTKNQVSLTCLVKGFYPSDIAVEWESNGQPENNYKTTPPVLDSDGSFFLYSRLTVDKSRWQEGNVFSCSVMHEALHNRFTQKSLSLSPGK
light: not shown
notes: Anti-BCMA arm from mAb21581, anti-CD3 arm and common light chain from mAb7221G; also called bsAb25441D9; mAb25441D
B2: bsAb25442D bispecific antibody (REGN5459), anti-BCMA x anti-CD3 (bispecific antibody, human IgG4 S228P, kappa)
heavy 1: EVQLVESGGGLVQPGGSLRLSCAASGFTFSNFWMTWVRQAPGKGLEWVANMNQDGSEKYYVDSVKGRFTISRDNAKSSLYLQMNSLRAEDTAVYYCARDREYCISTSCYDDFDYWGQGTLVTVSSASTKGPSVFPLAPCSRSTSESTAALGCLVKDYFPEPVTVSWNSGALTSGVHTFPAVLQSSGLYSLSSVVTVPSSSLGTKTYTCNVDHKPSNTKVDKRVESKYGPPCPPCPAPPVAGPSVFLFPPKPKDTLMISRTPEVTCVVVDVSQEDPEVQFNWYVDGVEVHNAKTKPREEQFNSTYRVVSVLTVLHQDWLNGKEYKCKVSNKGLPSSIEKTISKAKGQPREPQVYTLPPSQEEMTKNQVSLTCLVKGFYPSDIAVEWESNGQPENNYKTTPPVLDSDGSFFLYSRLTVDKSRWQEGNVFSCSVMHEALHNHYTQKSLSLSLGK
heavy 2: EVQLVESGGGLVQPGRSLRLSCAASGFTFDDYSMHWVRQAPGKGLEWVSGISWNSGSIGYADSVKGRFTISRDNAKNSLYLQMNSLRAEDTALYYCAKYGSGYGKFYYYGMDVWGQGTTVTVSSASTKGPSVFPLAPCSRSTSESTAALGCLVKDYFPEPVTVSWNSGALTSGVHTFPAVLQSSGLYSLSSVVTVPSSSLGTKTYTCNVDHKPSNTKVDKRVESKYGPPCPPCPAPPVAGPSVFLFPPKPKDTLMISRTPEVTCVVVDVSQEDPEVQFNWYVDGVEVHNAKTKPREEQFNSTYRVVSVLTVLHQDWLNGKEYKCKVSNKGLPSSIEKTISKAKGQPREPQVYTLPPSQEEMTKNQVSLTCLVKGFYPSDIAVEWESNGQPENNYKTTPPVLDSDGSFFLYSRLTVDKSRWQEGNVFSCSVMHEALHNRFTQKSLSLSPGK
light: not shown
notes: Anti-BCMA arm from mAb21581, anti-CD3 arm and common light chain from mAb7221G20; also called mAb25442D; mAb25442D-A647

Legend:
[1] = target: T1, human BCMA on the surface of cell lines …; experiment: cell-based or functional assay
[2] = target: T1, human BCMA on the surface of cell lines …; experiment: cell-based or functional assay; remark: listed apart in the source
[3] = target: T1, human BCMA on the surface of cell lines …; experiment: cell-based or functional assay; remark: listed apart in the source
[4] = target: T2, monkey BCMA-MFC (monkey BCMA with C-terminal mFc tag) (monkey); experiment: SPR Biacore, 25 C, mAb captured via anti-hFc
T2 construct: also called mfBCMA.mFc
T2 sequence (chain, as listed by the source limits assumed): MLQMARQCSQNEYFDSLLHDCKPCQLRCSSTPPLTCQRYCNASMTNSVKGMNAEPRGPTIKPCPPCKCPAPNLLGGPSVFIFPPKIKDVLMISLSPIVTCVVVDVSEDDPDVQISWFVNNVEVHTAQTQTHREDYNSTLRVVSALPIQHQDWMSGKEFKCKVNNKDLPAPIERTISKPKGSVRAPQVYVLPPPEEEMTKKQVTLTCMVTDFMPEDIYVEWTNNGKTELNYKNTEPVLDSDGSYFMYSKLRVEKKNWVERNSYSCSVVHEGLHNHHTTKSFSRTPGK
Protocol: The CM5 Biacore sensor surface was derivatized by amine coupling with a monoclonal mouse anti-human Fc antibody (GE, #BR-1008-39) to capture purified anti-BCMA mAbs and anti-BCMA×anti-CD3 bispecific mAbs. All Biacore binding studies were performed in a buffer composed of 0.01M HEPES pH 7.4, 0.15M NaCl, 3 mM EDTA, 0.05% v/v Surfactant P20 (HBS-ET running buffer). […] Antigen samples were then injected over the anti-BCMA and anti-BCMA×anti-CD3 bispecific mAbs captured surfaces at a flow rate of 30 μL/minute. Antibody-reagent association was monitored for 5 minutes while dissociation in HBS-ET running buffer was monitored for 10 minutes. All of the binding kinetics experiments were performed at 25° C. Kinetic association (kₐ) and dissociation (kd) rate constants were determined by fitting the real-time sensorgrams to a 1:1 binding model using Scrubber 2.0c curve fitting software. Binding dissociation equilibrium constants (KD) and dissociative half-lives (t1/2) were calculated from the kinetic rate constants as: […]

[5] = target: T3, cynomolgus CD3 on cells (mfCD3 engineered Jurkat cells, primary cynomolgus CD8+ T cells) (cynomolgus, UniProt Q95LI5 22-198; Q95LI8 22-171); experiment: flow cytometry, mfCD3 engineered Jurkat cells, median EC50, n=2
T3 construct: whole, on cells; The engineered Jurkat line expresses cynomolgus CD3 epsilon and delta in place of the human versions (other chains remain human); primary cynomolgus T cells carry the whole cynomolgus complex; also called Jurkat-mfCD3; Mf (Cyno) CD3
T3 sequence (Q95LI5 22-198, stated change not applied, chain 1 of 2): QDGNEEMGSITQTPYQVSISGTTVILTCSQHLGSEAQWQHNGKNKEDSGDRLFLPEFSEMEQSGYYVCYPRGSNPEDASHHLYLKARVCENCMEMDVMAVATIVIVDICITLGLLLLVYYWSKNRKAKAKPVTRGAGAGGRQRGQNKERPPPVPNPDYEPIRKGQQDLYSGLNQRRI
T3 sequence (Q95LI8 22-171, stated change not applied, chain 2 of 2): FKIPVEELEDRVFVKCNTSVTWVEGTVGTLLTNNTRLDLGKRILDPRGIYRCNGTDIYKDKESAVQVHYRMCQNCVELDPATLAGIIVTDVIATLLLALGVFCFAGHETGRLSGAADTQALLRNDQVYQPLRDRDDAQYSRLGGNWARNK
Protocol: Flow cytometric analysis was utilized to determine binding of BCMA×CD3 bispecific antibodies to human and cynomolgus CD3 (Jurkat cells, mfCD3 engineered Jurkat cells, primary human CD8+ and cynomolgus CD8+ T cells). Briefly, 1e05 cells/well were incubated in the presence of FACS wash with block (PBS+1% filtered FBS+5% mouse serum) with a serial dilution of BCMA×CD3 and control antibodies for 30 minutes on ice. After incubation, the cells were washed twice with cold FACS wash (PBS+1% filtered FBS) and bound antibody was detected by incubating with Alexa647-conjugated anti-human secondary antibody on ice for an additional 30 minutes. Wells containing no antibody or secondary only were used as a control. For the detection of monkey and human T cells, a cocktail of human and cynomolgus cross-reactive antibodies to CD4, CD8 and CD16 was added to the anti-human secondary. After incubation, cells were washed, re-suspended in 200 μL cold PBS containing 1% filtered FBS and analyzed by flow cytometry on a BD FACS Canto II. Cells were gated by FSC-H by FSC-A to select singlet events, followed by side and forward scatters to select for live events. For monkey T cells, additional gating on CD8+/CD16-cells was performed.
EC50 values for FACS binding were calculated using 4-parameter non-linear regression analysis in Prism software.

[6] = target: T1, human BCMA on the surface of cell lines …; experiment: flow cytometry, Alexa647 conjugate on Daudi cells
Protocol: (§1) Cells were then washed and fixed for 25 mins at 4° C. using a 50% solution of BD Cytofix (BD, Cat #554655) diluted in PBS. […] After gating for live cells and single cells, the mean fluorescent intensity (MFI) was determined, and MFI values were plotted in Graphpad Prism using a four-parameter logistic equation over a 10-point response curve to calculate EC₅₀s. The zero condition for each dose-response curve is also included in the analysis as a continuation of the two-fold serial dilution and is represented as the lowest dose.

[7] = target: T1, human BCMA on the surface of cell lines …; experiment: flow cytometry, Alexa647 conjugate on MM.1S cells
Protocol: as §1

[8] = target: T1, human BCMA on the surface of cell lines …; experiment: flow cytometry, Alexa647 conjugate on OPM-2 cells
Protocol: as §1

[9] = target: T1, human BCMA on the surface of cell lines …; experiment: flow cytometry, Alexa647 conjugate on NCI-H929 cells
Protocol: as §1

[10] = target: T1, human BCMA on the surface of cell lines …; experiment: flow cytometry, Alexa647 conjugate on RPMI-8226 cells
Protocol: as §1

Row | Binder | EC50, Jurkat/NFATLuc reporter activation with Daudi cells [1] [nM] | EC50, Jurkat/NFATLuc reporter activation with MM1-S cells [1] [nM] | EC50, Jurkat/NFATLuc reporter activation with NCI-H929 cells [1] [nM] | EC50, Jurkat/NFATLuc reporter activation with OPM-2 cells [1] [nM] | EC50, Jurkat/NFATLuc reporter activation with MOLP-8 cells [2] [nM] | EC50, Jurkat/NFATLuc reporter activation with RPMI-8226 cells [2] [nM] | EC50, Jurkat/NFATLuc reporter activation with Raji cells [2] [nM] | Median EC50, % Survival of H929 target cells, human effector cells [3] [nM] | Median EC50, % Survival of MM1S target cells, human effector cells [3] [nM] | Median EC50, % Survival of U266 target cells, human effector cells [3] [nM] | Median EC50, % T activation with H929 target cells, human effector cells [3] [nM] | Median EC50, % T activation with MM1S target cells, human effector cells [3] [nM] | Median EC50, % T activation with U266 target cells, human effector cells [3] [nM] | 30 nM mfBCMA.mFc Bind (RU) [4] [RU] | Kd [4] [nM] | t1/2 [4] [h] | also measured
1 | B1 | 2.1 | 1.2 | 0.68 | 0.66 | 1.4 | 0.61 | 1.6 | 0.103 | 0.0646 | 0.328 | 0.211 | 0.0706 | 0.107 | 108 | 0.167 | 2.19 | EC50 [5]: 15.1 nM
2 | B2 | 7.9 | 4.4 | 2.7 | 2.6 | 11 | 2.6 | 7.4 | 0.301 | 0.288 | 1.66 | 0.3 | 0.458 | 0.469 | 97 | 0.148 | 2.69 | koff [4]: 7.15e-05 s⁻¹; kon [4]: 482000 M⁻¹ s⁻¹; S/N (ratio of mAb25442D-A647 MFI to Isotype-A647 MFI) [6]: 3; EC50 [7]: 83 nM; S/N (ratio of mAb25442D-A647 MFI to Isotype-A647 MFI) [7]: 43; EC50 [8]: 57 nM; S/N (ratio of mAb25442D-A647 MFI to Isotype-A647 MFI) [8]: 19; EC50 [9]: 79 nM; S/N (ratio of mAb25442D-A647 MFI to Isotype-A647 MFI) [9]: 470; EC50 [10]: 27 nM; S/N (ratio of mAb25442D-A647 MFI to Isotype-A647 MFI) [10]: 9
